{"source": "paper PMC10485824", "about": "(Life Science Alliance, 2023)", "binders": {"B1": {"name": "XIAP BIR2^93−240 (domain or fragment, human)", "chain": "GPINGFYLENSATQSTNSGIQNGQYKVENYLGSRDHFALDRPSETHADYLLRTGQVVDISDTIYPRNPAMYSEEARLKSFQNWPDYAHLTPRELASAGLYYTGIGDQVQCFCCGGKLKNWEPCDRAWSEHRRHFPNCFFVLGRNLNIRSE", "notes": "two additional residues after the P3C cleavage site; XIAP, human, residues 93-240; source: E. coli Rosetta 2, purified (glutathione sepharose, P3C cleavage, SEC); not shown: GST, N-terminal, cleaved"}, "B2": {"name": "RIPK2^1−300 (domain or fragment, human, UniProt O43353 1-300, looked up)", "chain": "MNGEAICSALPTIPYHKLADLRYLSRGASGTVSSARHADWRVQVAVKHLHIHTPLLDSERKDVLREAEILHKARFSYILPILGICNEPEFLGIVTEYMPNGSLNELLHRKTEYPDVAWPLRFRILHEIALGVNYLHNMTPPLLHHDLKTQNILLDNEFHVKIADFGLSKWRMMSLSQSRSSKSAPEGGTIIYMPPENYEPGQKSRASIKHDIYSYAVITWEVLSRKQPFEDVTNPLQIMYSVSQGHRPVINEESLPYDIPHRARMISLIESGWAQNPDERPSFLKCLIELEPVLRTFEEI", "modifications": "labelled with the Monolith Protein labelling kit RED-NHS second generation (primary amines) for MST only", "notes": "RIPK2, human, kinase domain, residues 1-300; also called kinase domain of RIPK2 (residues 1–300); source: sf21 insect cells (baculovirus), purified (amylose resin, TEV cleavage, anion exchange)"}, "B3": {"name": "XIAP BIR2^124–240 (domain or fragment, human)", "chain": "GPRDHFALDRPSETHADYLLRTGQVVDISDTIYPRNPAMYSEEARLKSFQNWPDYAHLTPRELASAGLYYTGIGDQVQCFCCGGKLKNWEPCDRAWSEHRRHFPNCFFVLGRNLNIRSE", "notes": "two additional residues after the P3C cleavage site; XIAP, human, linker region (124-154) and BIR2 domain, residues 124-240; also called long BIR2 construct; source: E. coli Rosetta 2, purified (glutathione sepharose, P3C cleavage, SEC); not shown: GST, N-terminal, cleaved"}, "B4": {"name": "XIAP BIR2AG^124–240 (domain or fragment, human)", "chain": "B3 chain with C81A, C92G", "notes": "two additional residues after the P3C cleavage site; XIAP, human, residues 124-240 with the AG mutations C202A and C213G; For NMR uniformly 15N- or 13C/15N-labelled (M9 medium); also called AG construct (long); ^15N-labeled XIAP BIR2; source: E. coli Rosetta 2, purified (glutathione sepharose, P3C cleavage, SEC); not shown: GST, N-terminal, cleaved"}, "B5": {"name": "XIAP BIR2^93−263 (domain or fragment, human)", "chain": "GPINGFYLENSATQSTNSGIQNGQYKVENYLGSRDHFALDRPSETHADYLLRTGQVVDISDTIYPRNPAMYSEEARLKSFQNWPDYAHLTPRELASAGLYYTGIGDQVQCFCCGGKLKNWEPCDRAWSEHRRHFPNCFFVLGRNLNIRSESDAVSSDRNFPNSTNLPRNPSMA", "notes": "two additional residues after the P3C cleavage site; XIAP, human, residues 93-263; source: E. coli Rosetta 2, purified (glutathione sepharose, P3C cleavage, SEC); not shown: GST, N-terminal, cleaved"}, "B6": {"name": "XIAP BIR2^124−263 (domain or fragment, human)", "chain": "GPRDHFALDRPSETHADYLLRTGQVVDISDTIYPRNPAMYSEEARLKSFQNWPDYAHLTPRELASAGLYYTGIGDQVQCFCCGGKLKNWEPCDRAWSEHRRHFPNCFFVLGRNLNIRSESDAVSSDRNFPNSTNLPRNPSMA", "notes": "two additional residues after the P3C cleavage site; XIAP, human, residues 124-263; source: E. coli Rosetta 2, purified (glutathione sepharose, P3C cleavage, SEC); not shown: GST, N-terminal, cleaved"}, "B7": {"name": "RIPK2^1−317 (domain or fragment, human, UniProt O43353 1-317, looked up)", "chain": "MNGEAICSALPTIPYHKLADLRYLSRGASGTVSSARHADWRVQVAVKHLHIHTPLLDSERKDVLREAEILHKARFSYILPILGICNEPEFLGIVTEYMPNGSLNELLHRKTEYPDVAWPLRFRILHEIALGVNYLHNMTPPLLHHDLKTQNILLDNEFHVKIADFGLSKWRMMSLSQSRSSKSAPEGGTIIYMPPENYEPGQKSRASIKHDIYSYAVITWEVLSRKQPFEDVTNPLQIMYSVSQGHRPVINEESLPYDIPHRARMISLIESGWAQNPDERPSFLKCLIELEPVLRTFEEITFLEAVIQLKKTKLQSV", "notes": "Incubated with nucleotide (ATP or AMPPCP) and MgCl2 before XIAP BIR2 was added; ATP-MgCl2 is said to promote full phosphorylation; Antiparallel dimer in the complex; also called RIPK2 kinase; RIPK2 wt; source: sf21 insect cells (baculovirus), purified (amylose resin, TEV cleavage, anion exchange)"}, "B8": {"name": "RIPK2^1−317 S282L (domain or fragment, human, UniProt O43353 1-317, looked up)", "chain": "B7 chain with S282L", "notes": "Incubated with 500 μM ATP and 5 mM MgCl2 before XIAP BIR2 was added; also called RIPK2–S282L (recombinant); source: sf21 insect cells (baculovirus), purified as RIPK2 wt"}, "B9": {"name": "RIPK2^1−317 K209A (domain or fragment, human, UniProt O43353 1-317, looked up)", "chain": "B7 chain with K209A", "notes": "Incubated with 500 μM ATP and 5 mM MgCl2 before XIAP BIR2 was added; also called RIPK2–K209A (recombinant); source: sf21 insect cells (baculovirus), purified as RIPK2 wt"}, "B10": {"name": "RIPK2^1−317 K209R (domain or fragment, human, UniProt O43353 1-317, looked up)", "chain": "B7 chain with K209R", "notes": "Incubated with 500 μM ATP and 5 mM MgCl2 before XIAP BIR2 was added; also called RIPK2–K209R (recombinant); source: sf21 insect cells (baculovirus), purified as RIPK2 wt"}, "B11": {"name": "XIAP BIR2^154–240 (domain or fragment, human, UniProt P98170 154-240, looked up)", "chain": "YPRNPAMYSEEARLKSFQNWPDYAHLTPRELASAGLYYTGIGDQVQCFCCGGKLKNWEPCDRAWSEHRRHFPNCFFVLGRNLNIRSE", "notes": "Plasmid pET49, a gift from Katrin Rittinger; also called short BIR2 construct; source: E. coli Rosetta 2, purified (glutathione sepharose, P3C cleavage, SEC); not shown: GST, N-terminal, cleaved"}, "B12": {"name": "XIAP BIR2AG^154–240 (domain or fragment, human, UniProt P98170 154-240, looked up)", "chain": "B11 chain with C49A, C60G", "notes": "XIAP, human, BIR2 domain, residues 154-240 with the AG mutations C202A and C213G; Plasmid pET49, a gift from Katrin Rittinger; also called AG construct (short); source: E. coli Rosetta 2, purified (glutathione sepharose, P3C cleavage, SEC); not shown: GST, N-terminal, cleaved"}}, "key": {"[1]": {"molecular_target": "T1, RIPK2^1−300 (human, UniProt O43353 1-300, labelled with the Monolith Protein labelling kit RED-NHS second generation (primary amines) for MST only)", "T1 chain": "B2 chain", "experiment": "MST"}, "[2]": {"molecular_target": "B2", "experiment": "MST; RIPK2 1-300 labelled with RED-NHS at 20 nM final, XIAP BIR2 constructs titrated from 1.2-2,500 nM; 20 mM Hepes pH 7.5, 150 mM NaCl, 2% glycerol, 0.05% Tween-20; 20°C; one-site binding model, triplicates", "settings": "both partners purified"}, "[3]": {"molecular_target": "the molecule itself", "experiment": "native MS; complex fractions reapplied on Superdex 200 10/300 increase in 250 mM ammonium acetate with 1 mM DTT; concentration range of 10 μM"}, "[4]": {"molecular_target": "B2", "experiment": "native MS; complex fractions reapplied on Superdex 200 10/300 increase in 250 mM ammonium acetate with 1 mM DTT; concentration range of 10 μM", "settings": "both partners purified"}, "[5]": {"molecular_target": "B7", "experiment": "native MS; complex fractions reapplied on Superdex 200 10/300 increase in 250 mM ammonium acetate with 1 mM DTT; concentration range of 10 μM", "settings": "both partners purified"}, "[6]": {"molecular_target": "the molecule itself", "experiment": "SEC; RIPK2 1-317 wt or mutant with 500 μM ATP and 5 mM MgCl2 on ice, XIAP BIR2 154-240 added in excess (1:2), Superdex 200 3.2/300 increase in buffer C; fractions on SDS-PAGE"}, "[7]": {"molecular_target": "B7", "experiment": "cryo-EM structure; single-particle cryo-EM of the SEC-purified RIPK2 1-317-XIAP BIR2 154-240 complex, Titan Krios 300 keV, untilted and tilted data, 3.15 Å", "settings": "both partners purified"}}, "note": "Numbering of substitutions follows the chain as printed. Names and notes keep the numbering of the source. Values joined by “and” are separate entries in the source; they are usually repeats but may differ in a detail not shown here. Equal entries are not always repeated.", "data": [{"binder": "B1", "values": [{"measurement": "Kd", "setting": "[1]", "result": 92.9, "unit": "nM"}, {"measurement": "binding result", "setting": "[2]", "result": "binds"}]}, {"binder": "B2", "values": [{"measurement": "stoichiometry N", "setting": "[3]", "result": "2 molecules of RIPK2"}]}, {"binder": "B3", "values": [{"measurement": "Kd", "setting": "[1]", "result": 85.9, "unit": "nM"}, {"measurement": "stoichiometry N", "setting": "[4]", "result": "1 RIPK2 per XIAP BIR2 (printed as the ratio 2:2) and 2 RIPK2 per XIAP BIR2 (printed as the ratio 2:1)"}]}, {"binder": "B4", "values": [{"measurement": "stoichiometry N", "setting": "[5]", "result": "1 RIPK2 per XIAP BIR2 (printed as the ratio 2:2)"}]}, {"binder": "B5", "values": [{"measurement": "binding result", "setting": "[2]", "result": "binds"}]}, {"binder": "B6", "values": [{"measurement": "Kd", "setting": "[1]", "result": 142, "unit": "nM"}, {"measurement": "binding result", "setting": "[2]", "result": "binds"}]}, {"binder": "B7", "values": [{"measurement": "stoichiometry N", "setting": "[3]", "result": "2 molecules of RIPK2"}]}, {"binder": "B8", "values": [{"measurement": "binding result", "setting": "[6]", "result": "binds"}]}, {"binder": "B9", "values": [{"measurement": "binding result", "setting": "[6]", "result": "binds"}]}, {"binder": "B10", "values": [{"measurement": "binding result", "setting": "[6]", "result": "binds"}]}, {"binder": "B11", "values": [{"measurement": "stoichiometry N", "setting": "[5]", "result": "1 RIPK2 per XIAP BIR2 (printed as the ratio 2:2)"}, {"measurement": "stoichiometry N", "setting": "[7]", "result": "2 RIPK2 per XIAP BIR2 (printed as the ratio 2:1)"}, {"measurement": "Kd", "setting": "[2]", "result": "85.6 ± 18.7", "unit": "nM"}]}, {"binder": "B12", "values": [{"measurement": "stoichiometry N", "setting": "[5]", "result": "2 RIPK2 per XIAP BIR2 (printed as the ratio 2:1) and 1 RIPK2 per XIAP BIR2 (printed as the ratio 2:2)"}]}]}
